Experimental data published in publication doi:10.1101/2022.11.09.515798.

Tests used:
[1] = target: Hyphochytrium catenoides kalium channelrhodopsin 1 (HcKCR1) (Hyphochytrium catenoides); test: cryo-EM structure
[2] = target: Hyphochytrium catenoides kalium channelrhodopsin 2 (HcKCR2) (Hyphochytrium catenoides); test: cryo-EM structure

With “Hyphochytrium catenoides kalium channelrhodopsin 1 (HcKCR1) (natural protein)” the stoichiometry N [1] was 3.
For “Hyphochytrium catenoides kalium channelrhodopsin 2 (HcKCR2) (natural protein)”, the stoichiometry N [2] was 3.
